# Biological target: ETS1:RUNX1 (Homo sapiens, UniProt P14921;Q01196 full;full)
# Experiment: gcPBM; 1 nM ETS1 + 25 nM RUNX1, anti-ETS1 signal, normalised
# Settings: tags: N-terminal GST (pDEST15), kept (PMC6008103); copies: 1;1; label: surface-attached array probe
# Sequence of ETS1:RUNX1 (P14921 whole entry, chain 1 of 2): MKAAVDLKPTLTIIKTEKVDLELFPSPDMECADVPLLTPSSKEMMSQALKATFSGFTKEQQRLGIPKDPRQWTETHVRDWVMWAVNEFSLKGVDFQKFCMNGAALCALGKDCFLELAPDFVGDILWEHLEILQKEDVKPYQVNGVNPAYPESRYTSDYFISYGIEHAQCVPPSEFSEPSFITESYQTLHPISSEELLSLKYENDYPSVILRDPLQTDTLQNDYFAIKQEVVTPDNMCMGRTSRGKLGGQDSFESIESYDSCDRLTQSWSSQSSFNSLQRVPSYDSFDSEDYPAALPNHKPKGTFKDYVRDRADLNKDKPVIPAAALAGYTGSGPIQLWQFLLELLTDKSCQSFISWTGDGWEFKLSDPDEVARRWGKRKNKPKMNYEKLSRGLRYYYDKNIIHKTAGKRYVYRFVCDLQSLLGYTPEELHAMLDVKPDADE
# Sequence of ETS1:RUNX1 (Q01196 whole entry, chain 2 of 2): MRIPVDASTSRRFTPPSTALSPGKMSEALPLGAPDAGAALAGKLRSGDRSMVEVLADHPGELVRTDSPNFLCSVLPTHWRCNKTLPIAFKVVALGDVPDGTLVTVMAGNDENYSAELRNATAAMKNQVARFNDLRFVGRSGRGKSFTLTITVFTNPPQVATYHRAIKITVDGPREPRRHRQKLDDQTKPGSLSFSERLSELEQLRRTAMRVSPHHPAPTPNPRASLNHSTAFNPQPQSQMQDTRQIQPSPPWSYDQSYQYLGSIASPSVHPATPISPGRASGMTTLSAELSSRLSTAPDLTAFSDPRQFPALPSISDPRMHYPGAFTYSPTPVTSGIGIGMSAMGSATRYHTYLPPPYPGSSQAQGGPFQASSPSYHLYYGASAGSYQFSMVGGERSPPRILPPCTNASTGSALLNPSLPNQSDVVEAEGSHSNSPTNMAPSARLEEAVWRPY
row,Binder,binding signal
1,Table S2 A row 1268 (dsDNA) DNA 1: GAATGGCGGATGTGGCTGGGGAGAGAAAGCCGCAGA DNA 2: TCTGCGGCTTTCTCTCCCCAGCCACATCCGCCATTC,"4780 PBM fluorescence, median of replicate spots"
2,Table S2 A row 274 (dsDNA) DNA 1: ATGCCTTCTTCCAGAGGATGTGGTCGCTACTAGTGG DNA 2: CCACTAGTAGCGACCACATCCTCTGGAAGAAGGCAT,"4270 PBM fluorescence, median of replicate spots"
3,Table S2 A row 238 (dsDNA) DNA 1: GCGCGGACAGAGAAAGGATGTGGTATAGCAGAAAGT DNA 2: ACTTTCTGCTATACCACATCCTTTCTCTGTCCGCGC,"4350 PBM fluorescence, median of replicate spots"
4,Table S2 A row 485 (dsDNA) DNA 1: TGAAGTACTAGTCAAGGATGTGGTTTTACATAGCAG DNA 2: CTGCTATGTAAAACCACATCCTTGACTAGTACTTCA,"4920 PBM fluorescence, median of replicate spots"
5,Table S2 A row 1390 (dsDNA) DNA 1: CTGTGACACGTGCGGAAGCTGTGGTAAGTGCATCCA DNA 2: TGGATGCACTTACCACAGCTTCCGCACGTGTCACAG,"3240 PBM fluorescence, median of replicate spots"
6,Table S2 A row 1378 (dsDNA) DNA 1: CAAGAGAAAGGAAGTGGAAGCTCTTGTGGTCTGGAA DNA 2: TTCCAGACCACAAGAGCTTCCACTTCCTTTCTCTTG,"5370 PBM fluorescence, median of replicate spots"
7,Table S2 A row 860 (dsDNA) DNA 1: CTGAGCCGGATGTTACTGGTTAGTGGTTTTCTTTAT DNA 2: ATAAAGAAAACCACTAACCAGTAACATCCGGCTCAG,"5210 PBM fluorescence, median of replicate spots"
8,Table S2 A row 585 (dsDNA) DNA 1: TGTATGAAAAAAACAGGAAACCACAGAGAACTGAGG DNA 2: CCTCAGTTCTCTGTGGTTTCCTGTTTTTTTCATACA,"4240 PBM fluorescence, median of replicate spots"
9,Table S2 A row 877 (dsDNA) DNA 1: GAGTGGGCGGAAATCCGTGCCTGGCAGACCACAAAG DNA 2: CTTTGTGGTCTGCCAGGCACGGATTTCCGCCCACTC,"4940 PBM fluorescence, median of replicate spots"
10,Table S2 A row 1092 (dsDNA) DNA 1: CTCACAGAGCAAGTAGGATGTGGTTTCCAGGGGCTG DNA 2: CAGCCCCTGGAAACCACATCCTACTTGCTCTGTGAG,"5400 PBM fluorescence, median of replicate spots"
11,Table S2 A row 1154 (dsDNA) DNA 1: GGCCTCGGCCACATCCGGGTTCCACCGCAGATTCGG DNA 2: CCGAATCTGCGGTGGAACCCGGATGTGGCCGAGGCC,"5630 PBM fluorescence, median of replicate spots"
12,Table S2 A row 1325 (dsDNA) DNA 1: GGACCGGTGTCTGGCGGATGCGGTCGTGAAGATAGG DNA 2: CCTATCTTCACGACCGCATCCGCCAGACACCGGTCC,"4590 PBM fluorescence, median of replicate spots"
13,Table S2 A row 442 (dsDNA) DNA 1: GGAAAAGGAAGTGGCTTTGACTTGCGGGCAGGGAGA DNA 2: TCTCCCTGCCCGCAAGTCAAAGCCACTTCCTTTTCC,"3710 PBM fluorescence, median of replicate spots"
14,Table S2 A row 1339 (dsDNA) DNA 1: GTAGGGAAGACGGGATGTGGGTTTTCAGCCGTGGCC DNA 2: GGCCACGGCTGAAAACCCACATCCCGTCTTCCCTAC,"4760 PBM fluorescence, median of replicate spots"
15,Table S2 A row 1400 (dsDNA) DNA 1: AGCTGCATTTCCGGGCAGGCAATGAAACCACAGAGT DNA 2: ACTCTGTGGTTTCATTGCCTGCCCGGAAATGCAGCT,"3930 PBM fluorescence, median of replicate spots"
16,Table S2 A row 34 (dsDNA) DNA 1: GGAGGTGGGGAGGAAGTTCTGAAACCACACACATTT DNA 2: AAATGTGTGTGGTTTCAGAACTTCCTCCCCACCTCC,"4160 PBM fluorescence, median of replicate spots"
17,Table S2 A row 122 (dsDNA) DNA 1: GAGAAACAGGAAGAGGGGTGGTGGTTACGGAACACG DNA 2: CGTGTTCCGTAACCACCACCCCTCTTCCTGTTTCTC,"4040 PBM fluorescence, median of replicate spots"
18,Table S2 A row 163 (dsDNA) DNA 1: GATTGTTATGTCCGGAAACCGCTTATCAGAGCCCTG DNA 2: CAGGGCTCTGATAAGCGGTTTCCGGACATAACAATC,"5000 PBM fluorescence, median of replicate spots"
19,Table S2 A row 149 (dsDNA) DNA 1: TTCAACAGGATATTGCTTTGTTACCACAGGCCCTTT DNA 2: AAAGGGCCTGTGGTAACAAAGCAATATCCTGTTGAA,"3020 PBM fluorescence, median of replicate spots"
20,Table S2 A row 995 (dsDNA) DNA 1: GCGCCCTCCAGGAAACGCCGCGGTTTACTGTCTGCC DNA 2: GGCAGACAGTAAACCGCGGCGTTTCCTGGAGGGCGC,"4310 PBM fluorescence, median of replicate spots"
21,Table S2 A row 18 (dsDNA) DNA 1: GAGGCAGGCGGATGTCAGTGTGGTTAGAGCACAGTG DNA 2: CACTGTGCTCTAACCACACTGACATCCGCCTGCCTC,"3320 PBM fluorescence, median of replicate spots"
22,Table S2 A row 505 (dsDNA) DNA 1: ACCCAGTAGGGGCCAGGATGTGGTGAAAAGAGAATT DNA 2: AATTCTCTTTTCACCACATCCTGGCCCCTACTGGGT,"3620 PBM fluorescence, median of replicate spots"

row,Binder,binding signal
1,Table S2 A row 1363 (dsDNA) DNA 1: ATGAGCTATTTCCTGCCTTGTGGTCAGAGCCAGACT DNA 2: AGTCTGGCTCTGACCACAAGGCAGGAAATAGCTCAT,"5600 PBM fluorescence, median of replicate spots"
2,Table S2 A row 1124 (dsDNA) DNA 1: ATCTTTTGATGAGGATGTGGTTTCCAGGCAGGTGCT DNA 2: AGCACCTGCCTGGAAACCACATCCTCATCAAAAGAT,"4440 PBM fluorescence, median of replicate spots"
3,Table S2 A row 1756 (dsDNA) DNA 1: GCCAACAGGAAGCTGGAAGCCAACCGCACTGTGTGC DNA 2: GCACACAGTGCGGTTGGCTTCCAGCTTCCTGTTGGC,"3630 PBM fluorescence, median of replicate spots"
4,Table S2 A row 1272 (dsDNA) DNA 1: TTGAATATGAAAGGAAGTGGTTAGGTGATGTGTTCT DNA 2: AGAACACATCACCTAACCACTTCCTTTCATATTCAA,"5150 PBM fluorescence, median of replicate spots"
5,Table S2 A row 233 (dsDNA) DNA 1: TCCTATATACTTCCGTTTGCCTCGCGGTTTCTTTCT DNA 2: AGAAAGAAACCGCGAGGCAAACGGAAGTATATAGGA,"4400 PBM fluorescence, median of replicate spots"
6,Table S2 A row 189 (dsDNA) DNA 1: TGGCAGAGCACATCCTGTGCGGTTTTCAGTTTTGCT DNA 2: AGCAAAACTGAAAACCGCACAGGATGTGCTCTGCCA,"3840 PBM fluorescence, median of replicate spots"
7,Table S2 A row 1553 (dsDNA) DNA 1: GAAGGAAGTGGAGACAGTAAGGGGAAACCACAAACC DNA 2: GGTTTGTGGTTTCCCCTTACTGTCTCCACTTCCTTC,"3570 PBM fluorescence, median of replicate spots"
8,Table S2 A row 1216 (dsDNA) DNA 1: CCCGGCCACTTCCGCCTATTGCGGGCGTCGGCTAGG DNA 2: CCTAGCCGACGCCCGCAATAGGCGGAAGTGGCCGGG,"3350 PBM fluorescence, median of replicate spots"
9,Table S2 A row 1407 (dsDNA) DNA 1: TGTGTATGAGAACGGATATAGGTGGTTTTATAAGGA DNA 2: TCCTTATAAAACCACCTATATCCGTTCTCATACACA,"3120 PBM fluorescence, median of replicate spots"
10,Table S2 A row 386 (dsDNA) DNA 1: AACTGGGCGGAAAGAACGGCTAACCGCAAGCTGCCG DNA 2: CGGCAGCTTGCGGTTAGCCGTTCTTTCCGCCCAGTT,"3490 PBM fluorescence, median of replicate spots"
11,Table S2 A row 1035 (dsDNA) DNA 1: AGTTGGTTCCTTCCGGTGGGTTTGTGGGTTTGGGGT DNA 2: ACCCCAAACCCACAAACCCACCGGAAGGAACCAACT,"5250 PBM fluorescence, median of replicate spots"
12,Table S2 A row 426 (dsDNA) DNA 1: GCCGGAAGCCACGCAGGGCCACGTCTGCGGTTCTGA DNA 2: TCAGAACCGCAGACGTGGCCCTGCGTGGCTTCCGGC,"4460 PBM fluorescence, median of replicate spots"
13,Table S2 A row 414 (dsDNA) DNA 1: CGCCGAACTTCCGGCAGTAAATTCCGTGGTTTCCCT DNA 2: AGGGAAACCACGGAATTTACTGCCGGAAGTTCGGCG,"5300 PBM fluorescence, median of replicate spots"
14,Table S2 A row 1293 (dsDNA) DNA 1: AGGTCGCCCTCCGGATGCGGTCCCCACACCGCCTGC DNA 2: GCAGGCGGTGTGGGGACCGCATCCGGAGGGCGACCT,"3170 PBM fluorescence, median of replicate spots"
15,Table S2 A row 813 (dsDNA) DNA 1: AAGTTGATTTCCGGGTAGTCTGTGGTTTCCTAATCA DNA 2: TGATTAGGAAACCACAGACTACCCGGAAATCAACTT,"4110 PBM fluorescence, median of replicate spots"
16,Table S2 A row 717 (dsDNA) DNA 1: GGACAGGAAGTTCCTGCAGCTTCTACCACAAACCTA DNA 2: TAGGTTTGTGGTAGAAGCTGCAGGAACTTCCTGTCC,"4990 PBM fluorescence, median of replicate spots"
17,Table S2 A row 145 (dsDNA) DNA 1: TGGGGAACGCTGCGGATGCTGCGGTAAACCATGCGA DNA 2: TCGCATGGTTTACCGCAGCATCCGCAGCGTTCCCCA,"5120 PBM fluorescence, median of replicate spots"
18,Table S2 A row 552 (dsDNA) DNA 1: AACCATTACAGGATGTGAGATTCAAACCACTAACAG DNA 2: CTGTTAGTGGTTTGAATCTCACATCCTGTAATGGTT,"4190 PBM fluorescence, median of replicate spots"
19,Table S2 A row 777 (dsDNA) DNA 1: CAGGAGCAGTGTAGAGGAAGTGGTTTCCATCACGGA DNA 2: TCCGTGATGGAAACCACTTCCTCTACACTGCTCCTG,"4870 PBM fluorescence, median of replicate spots"
20,Table S2 A row 1300 (dsDNA) DNA 1: CAAGTAATCTGCTCAGGAAGTGGTTTGAATAGAGGA DNA 2: TCCTCTATTCAAACCACTTCCTGAGCAGATTACTTG,"4710 PBM fluorescence, median of replicate spots"
21,Table S2 A row 1723 (dsDNA) DNA 1: CAACCCGGAAGCACTAACGGAGAAACCGCAACTCGG DNA 2: CCGAGTTGCGGTTTCTCCGTTAGTGCTTCCGGGTTG,"5540 PBM fluorescence, median of replicate spots"
22,Table S2 A row 1073 (dsDNA) DNA 1: ACCTTGCCTAGAGGAAGTGGTTTTTCGAATCTGAGT DNA 2: ACTCAGATTCGAAAAACCACTTCCTCTAGGCAAGGT,"4490 PBM fluorescence, median of replicate spots"
